Patent publication US20230123431

What was measured:
[1] = biological target: T1, Gcv3p (H protein of the glycine cleavage system), lipoylated
T1 chain: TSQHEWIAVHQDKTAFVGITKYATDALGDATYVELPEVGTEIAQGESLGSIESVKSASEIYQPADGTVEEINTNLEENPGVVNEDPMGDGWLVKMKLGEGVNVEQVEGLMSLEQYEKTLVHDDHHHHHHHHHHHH

[2] = biological target: T2, Lat1p (lipoate-bound subunit of pyruvate dehydrogenase, PDH), P12695
T2 chain: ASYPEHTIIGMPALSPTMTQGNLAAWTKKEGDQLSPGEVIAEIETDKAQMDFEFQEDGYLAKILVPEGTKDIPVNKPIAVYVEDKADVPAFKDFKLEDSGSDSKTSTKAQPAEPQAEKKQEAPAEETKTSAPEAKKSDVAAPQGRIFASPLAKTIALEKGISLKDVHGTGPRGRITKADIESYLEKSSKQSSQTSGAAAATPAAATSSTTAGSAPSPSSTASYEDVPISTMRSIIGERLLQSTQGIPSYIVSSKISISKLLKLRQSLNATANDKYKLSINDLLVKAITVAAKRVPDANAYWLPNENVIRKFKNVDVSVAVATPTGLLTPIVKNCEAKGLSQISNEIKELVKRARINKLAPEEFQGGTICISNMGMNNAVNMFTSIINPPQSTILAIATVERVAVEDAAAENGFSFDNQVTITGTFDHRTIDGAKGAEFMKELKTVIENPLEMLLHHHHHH

[3] = biological target: T3, Kgd2p (lipoate-bound subunit of alpha-ketoglutarate dehydrogenase, KGDC), P19262
T3 chain: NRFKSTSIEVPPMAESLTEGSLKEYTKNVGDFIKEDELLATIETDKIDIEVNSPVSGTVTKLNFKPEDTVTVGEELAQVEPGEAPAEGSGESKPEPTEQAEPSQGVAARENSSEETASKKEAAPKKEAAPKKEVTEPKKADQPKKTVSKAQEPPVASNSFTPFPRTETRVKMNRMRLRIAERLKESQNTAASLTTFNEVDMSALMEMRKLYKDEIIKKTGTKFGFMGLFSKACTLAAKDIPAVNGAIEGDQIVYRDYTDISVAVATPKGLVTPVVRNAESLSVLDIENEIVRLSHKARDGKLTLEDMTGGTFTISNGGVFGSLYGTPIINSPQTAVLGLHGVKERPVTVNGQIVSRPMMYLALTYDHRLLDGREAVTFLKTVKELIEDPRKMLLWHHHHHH

B1: lipoamidase from Enterococcus faecalis (EfLPA) (protein)
chain: MLSLRQSIRFFKPATRTLCSSRYLLQQKPMLAQESILETTVQTETESVTTETSQTVANLESETTSQTVMQEKESSSAIAESSSRNVVAVTTETTNEIQNSGTDGKAVSAESVFSEADYKQATALELATLVREKKVTSEELVKIALAITKRENPTLNAVITLREEAALTEAKALQDTGQPFLGVPLLLKGLGQSLKGESNTNGFGFLRDQVAGGTSTFVKALQNAGFIIIGQTNYPELGWKNISDSKLYGVSVNPWNPNHYSGGSSGGAGASVAAAFVPIASGSDAGGSIRIPASWTGTVGLKPSRGVIIGNSNSAKGQTVHFGLSRTVADTNALFETLLTKKDLPAGHLSQAQPIAYTTESPAGTPVSAEAKEAVAEAVAFLKDQGYTLVEVKHPVDGERLMKNYYTVAAGSAGIADFMARQKLKRPLERNDVELLTWALFQTGKNITSEETTAAWTDIALQAQAMDEFYQQYPILLTPTTAATAPSIDNPLLKPEHAAQMEKIDQLSPAEQKQLIYDQWLTAFTYTPFTQQANLFGHPALSVPTYVSKEGLPLGIQFNSALNEDRTLLQLGALFENNHKINQPHVEEPDKDKEPDASGEPEKDKDPNASGEPDKDKEPDASGEPDKDKEPDASGEPDKDKEPDASGKPDKDKETKTSEGPIEGKDQNQNPDKAGKTTSGSSLDNSLNSSANQGTKSTESTHAFSNKSMIGKQEQLPKKVLPKAGAEVPSTFWIVLGGAFLVTSGTIYIRKTRKHHHHHHHHHHHH
Q: Which results are given for B1?
A: lipoic acid released (LC-MS/MS, confirmed by GC-MS) after incubation of the purified proteins at 37 C for 2 h [1]: Only the reaction of EfLPA with Gcv3p resulted in a peak with m/z 205.0360 (FIG. 5B) indicative of lipoic acid; lipoic acid released (LC-MS/MS) after incubation of the purified proteins at 37 C for 2 h [2]: no lipoic acid was observed in the reaction mixtures containing EfLPA with Kgd2p or Lat1p individually; lipoic acid released (LC-MS/MS) after incubation of the purified proteins at 37 C for 2 h [3]: no lipoic acid was observed in the reaction mixtures containing EfLPA with Kgd2p or Lat1p individually
